Results: PMC9629070 (Autophagy, 2022)

T1: GST-ATG6 (Arabidopsis thaliana, UniProt Q9M367 1-517)
T1 sequence (looked up): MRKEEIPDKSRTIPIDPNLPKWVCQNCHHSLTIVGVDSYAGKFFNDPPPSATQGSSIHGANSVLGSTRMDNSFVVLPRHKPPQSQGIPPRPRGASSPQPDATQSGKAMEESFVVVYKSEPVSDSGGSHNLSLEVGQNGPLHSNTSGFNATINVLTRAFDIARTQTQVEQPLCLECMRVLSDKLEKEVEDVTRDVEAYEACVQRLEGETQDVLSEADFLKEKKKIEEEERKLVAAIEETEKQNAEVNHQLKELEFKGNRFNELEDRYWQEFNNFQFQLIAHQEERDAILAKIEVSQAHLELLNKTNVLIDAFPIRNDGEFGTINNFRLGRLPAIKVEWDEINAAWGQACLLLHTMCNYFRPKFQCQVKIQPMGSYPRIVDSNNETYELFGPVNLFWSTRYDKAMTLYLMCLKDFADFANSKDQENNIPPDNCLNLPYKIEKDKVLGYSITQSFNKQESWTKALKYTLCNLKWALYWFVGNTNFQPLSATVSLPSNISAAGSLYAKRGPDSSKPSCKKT


What was measured:
Test in all cases: pull-down
GAPC2-His = GAPC2-His (Arabidopsis thaliana, UniProt Q9FX54 1-338)
GAPC1-His = GAPC1-His (Arabidopsis thaliana, UniProt P25858 1-338)
GST-ATG6 = target: T1, GST-ATG6

Sequence of GAPC2-His (Q9FX54 whole entry): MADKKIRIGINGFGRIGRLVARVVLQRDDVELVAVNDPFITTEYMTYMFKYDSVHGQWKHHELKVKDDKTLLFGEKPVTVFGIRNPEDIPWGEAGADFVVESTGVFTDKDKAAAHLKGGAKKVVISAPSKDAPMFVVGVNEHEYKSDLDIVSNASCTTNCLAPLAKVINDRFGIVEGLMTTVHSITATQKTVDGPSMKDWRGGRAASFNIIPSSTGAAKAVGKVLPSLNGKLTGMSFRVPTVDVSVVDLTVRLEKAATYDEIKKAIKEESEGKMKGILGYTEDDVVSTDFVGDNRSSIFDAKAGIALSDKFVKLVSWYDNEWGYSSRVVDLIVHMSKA
Sequence of GAPC1-His (P25858 whole entry): as the sequence (Q9FX54 whole entry) above, with H61N, V65I, D68E, G92A, F98Y, S227A, M274L counted along it

binding result (GAPC2-His)	binding result (GAPC1-His)	binding result (GST-ATG6)	Binder
binds	binds	–	GST-ATG3 (natural protein, Arabidopsis thaliana, UniProt Q0WWQ1 1-313, looked up) MVLSQKLHEAFKGTVERITGPRTISAFKEKGVLSVSEFVLAGDNLVSKCPTWSWESGDASKRKPYLPSDKQFLITRNVPCLRRAASVAEDYEAAGGEVLVDDEDNDGWLATHGKPKDKGKEEDNLPSMDALDINEKNTIQSIPTYFGGEEDDDIPDMEEFDEADNVVENDPATLQSTYLVAHEPDDDNILRTRTYDLSITYDKYYQTPRVWLTGYDESRMLLQPELVMEDVSQDHARKTVTIEDHPHLPGKHASVHPCRHGAVMKKIIDVLMSRGVEPEVDKYLFLFLKFMASVIPTIEYDYTMDFDLGSSST
–	–	binds	PGK3-His (natural protein, Arabidopsis thaliana, UniProt Q9SAJ4 1-401, looked up) MATKRSVGTLKEADLKGKSVFVRVDLNVPLDDNSNITDDTRIRAAVPTIKYLMGNGSRVVLCSHLGRPKGVTPKYSLKPLVPRLSELLGVEVVMANDSIGEEVQKLVAGLPEGGVLLLENVRFYAEEEKNDPEFAKKLAALADVYVNDAFGTAHRAHASTEGVAKFLKPSVAGFLMQKELDYLVGAVANPKKPFAAIVGGSKVSTKIGVIESLLNTVDILLLGGGMIFTFYKAQGLSVGSSLVEEDKLDLAKSLMEKAKAKGVSLLLPTDVVIADKFAPDANSKIVPATAIPDGWMGLDIGPDSIKTFSEALDTTKTIIWNGPMGVFEFDKFAAGTEAVAKQLAELSGKGVTTIIGGGDSVAAVEKVGLADKMSHISTGGGASLELLEGKPLPGVLALDEA
